These results are taken from patent publication CN115991785A (SHANGHAI MIAOJU BIOTECHNOLOGY CO LTD; UNIV SHANGHAI JIAOTONG, dated 2023).

The target of test [1] is CD34-Fc抗原 (CD34-Fc antigen). Nature of the test: SPR (Biacore, CM5 chip, amine coupling, 1:1 binding model).
Test [2] concerns the target T1, MATN3-Fc抗原 (MATN3-Fc antigen) (human, UniProt O15232 29-486, limits assumed).
T1 construct: not shown: Fc part
T1 sequence (looked up): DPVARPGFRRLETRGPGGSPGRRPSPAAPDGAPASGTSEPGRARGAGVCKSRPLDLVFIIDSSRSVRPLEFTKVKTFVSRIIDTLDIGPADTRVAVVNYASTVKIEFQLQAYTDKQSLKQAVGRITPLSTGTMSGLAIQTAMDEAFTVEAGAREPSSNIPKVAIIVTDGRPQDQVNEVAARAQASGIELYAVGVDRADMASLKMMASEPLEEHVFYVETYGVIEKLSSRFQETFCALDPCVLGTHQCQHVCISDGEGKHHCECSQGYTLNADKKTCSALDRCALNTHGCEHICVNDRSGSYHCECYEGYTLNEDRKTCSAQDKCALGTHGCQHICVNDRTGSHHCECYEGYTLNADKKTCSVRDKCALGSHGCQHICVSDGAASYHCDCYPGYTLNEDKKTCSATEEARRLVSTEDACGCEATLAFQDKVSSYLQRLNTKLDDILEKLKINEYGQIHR
The description is as above.

CD34-Fc抗原 (CD34-Fc antigen), sequence (P28906 32-290): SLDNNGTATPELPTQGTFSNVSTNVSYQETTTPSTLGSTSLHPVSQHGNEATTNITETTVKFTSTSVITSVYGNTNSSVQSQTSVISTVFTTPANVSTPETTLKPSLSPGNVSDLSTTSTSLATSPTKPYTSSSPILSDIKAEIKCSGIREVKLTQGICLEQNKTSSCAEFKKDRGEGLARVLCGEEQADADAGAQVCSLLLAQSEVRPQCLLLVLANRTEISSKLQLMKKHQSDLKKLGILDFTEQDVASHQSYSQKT

B1: CD34×MATN3双特异性抗体 (CD34×MATN3 bispecific antibody, IgG1-scFv form) (bispecific antibody)
chain 1: EIQLQQSGPELMKPGASVKISCKASGYSFTSYYMHWVKQSQGKSLEWIGFIDPFNGGITYNQKFKGKATLTVDRSSSTAYMHLRSLTSEDSAVYYCARCYYNYDDEGRAMDYWGQGTSVTVSS
chain 2: DIQMTQSPSSLSASLGERVSLTCRASQDIGSSLNWLQQGPDGTFKRLIYATSSLDSSVPKRFSGSRSGSDYSLTISSLESEDFVDYYCLQYASSPYTFGGGTKLEIKR
chain 3: EVQLVQSGAEVKKPGASVKVSCKASGGTFSSYAISWVRQAPGQGLEWMGGIIPIFGTANYAQKFQGRVTITADKSTSTAYMELSSLRSEDTAVYYCARGQGYWFDPWGQGTLVTVSS
chain 4: DVQLTQSPSSLSASVGDRVTITCQASQDISNYLNWYQQKPGKAPKLLIYDASNLETGVPSRFSGSGSGTDFTFTISSLQPEDIATYYCQQYDNLPLTFGGGTKLEIKR
On to B1, for which the values for the Kd in test [1] and in test [2] were 8.53 nM and 0.00895 nM, respectively.
